Self-cleavage data for 32 variants are collected here from the RNAGym collection of RNA variant scans (doi:10.7554/elife.80360).

Sequences and labels used below:
B1: HDV Ribozyme (parent)
chain: GGCCGGCAUGGUCCCAGCCUCCUCGCUGGCGCCGGCUGGGCAACAUUCCGAGGGGACCGUCCCCUCGGUAAUGGCGAAUGGGACCCA

Variants of B1 are the subject of the data set. Briefly: self-cleavage, relative activity (ratio to wild type); higher = more cleavage; co-transcriptional.
As to GGCCGGCAUGGUCCCAGCCUCCUCGCUGGCGCGGGCUGGGCAACAUUCCGAGGGGACCGUCCCCUCGGUAAUGGCGAAUGGAACCCA, the self-cleavage is 0.
With GGCCGGCACGGUCCCAGCCUCCUCGCUGGAGCCGGCUGGGCAACAUUCCGAGGGGACCGUCCCCUCGGUAAUGGCGAAUGGGACCCA the figure was 0.458.
Then GGCCGUCAGGGUCCCAGCCUCCUCGCUGGCGCCGGCUGGGCAACAUUCCGAGGGGACCGUCCCCUCGGUAAUGGCGAAUGGGACCCA, with 0.511; and GGCCGGCAUGGUCCCAGCCUCCUCGCUGGCGCCGGCUGUGCAACAUUCCGAGGGGACCGUCCCCUCAGUAAUGGCGAAUGGGACCCA, with 0.698; and GGCCGGCAUGGUCCCAGCCUCCUCGCUGGCGCCGGCUGGGCAACAUUCCGAGGGGACCGUCCCCUCGGUAAUGGCGAAUGUGAACCA, with 0.378.
With GGCCGGCAUGGUCCCAGCCUCCUCGCGGGCGCCGGCUGGGCAACAUUCCGAGUGGACCGUCCCCUCGGUAAUGGCGAAUGGGACCCA the figure was 0.923.
Regarding GGCCGGCAUGGUCCCAGCCUCCUCGCUGGCGCCGGCUGGGCAACAUUACGAGGGGACCGGCCCCUCGGUAAUGGCGAAUGGGACCCA, the self-cleavage came to 0.886.
Regarding GGCCGGCAUGGUCCCAGCCUCCUCGCUGGCGCCGGCUGGGCAACAUUCCGAGGGGACCGUCCCUUCGGUAAUAGCGAAUGGGACCCA, the self-cleavage amounted to 0.81.
As for GGCCGGCAUGAUCCCAGCCUCCUCGCUGGCGCCGGCUGGGCAACAUUCCGAGGGGACCGUCGCCUCGGUAAUGGCGAAUGGGACCCA, the self-cleavage came out at 0.437.
With GGCCGGCAUGGUCCCAGACUCCUCGCUGGCGCCGGCUGGGCAACAUUCCGAGGGGACCGUGCCCUCGGUAAUGGCGAAUGGGACCCA the figure was 0.172; with GGCCGGCAUGGUCCCAGCCUCCUCGCUGGCGCCGGCUGGGCAACAUUCCGAGGGGACCGUCCCCUGGGUAAUGGCGGAUGGGACCCA, 0.612; with GGCCGGCAUGGUCCCAGUCUCCUCGCUGGCGCCGGCUGGGCAACAUUCCGAGGGGCCCGUCCCCUCGGUAAUGGCGAAUGGGACCCA, 0.628.
Then GGCCGGCAUGGUCCCAGCCUCCUCGCUGGCCCCGGCUGGGCAACAUUCCGAGGGGACCGUCCCCUCGGUAACGGCGAAUGGGACCCA, with 0.262; and GGCCGCCAUGAUCCCAGCCUCCUCGCUGGCGCCGGCUGGGCAACAUUCCGAGGGGACCGUCCCCUCGGUAAUGGCGAAUGGGACCCA, with 0; and GGACGGCAUGGUCCCAGCCUCCUCGCUGGCGCCGGCUGGGCAACAUUCCGAGGGGACCGUCCCCUCGGUAAUGGCGAAUGGGACUCA, with 0.626.
With GGCCGGCAUGGUCCCAGCCCCCUCGCUGGCGCCGGCUGGGCAACAUUCCGUGGGGACCGUCCCCUCGGUAAUGGCGAAUGGGACCCA the figure was 0.185.
As to GGCCGGCAUGGUCCCAGCCUCCUCGCUGGCGCCGGUUGGGCAACGUUCCGAGGGGACCGUCCCCUCGGUAAUGGCGAAUGGGACCCA, the self-cleavage was 0.522.
Then GGCCGGCAUGGUCCCAGCCUCCUCGCUGGCGCCGGCUGGGCAACAUUCCGACGGGACCGUCCCCUCGGUAAUGGCGAAUGAGACCCA, with 0.563; and GGCCGGCAUGGUCCCAGCCUCCUCGGUGGCGCCGGCUGGGCAACAUUCCGAGGGGACCGUCUCCUCGGUAAUGGCGAAUGGGACCCA, with 1.09.
With GGCCGGCAUGGUCCCAGCUUCCUCGCUGGCGCCGGCUGGGCAACAUUCCGAGGGGACCGUCCCCUCGGUAAAGGCGAAUGGGACCCA the figure was 0.0504.
As to GGCCGGCAUGGUCCCAGCCCCCUCGCUGGCGCCGGCUGGGCAACAUUCCGAGGUGACCGUCCCCUCGGUAAUGGCGAAUGGGACCCA, the self-cleavage worked out at 0.122.
With GGCCGGCAUGGUCCCAGCCUCCUCGCUGGCGUCGGCUGGGCAACAUUCCGUGGGGACCGUCCCCUCGGUAAUGGCGAAUGGGACCCA the figure was 0.884.
For the variant GGCCGGCAUGGUCCCAGCCUCCUCGCUGGCGCCGGCUGGGCAACAUUCCGAGGGGACCGUCCCCUCGGUAAUGACGAAUGGGACGCA, the self-cleavage worked out at 0.601.
GGCCGGCAUGGUCCCAGCCUCCUCGCUGGCGCCGGCUGGGAAACAUGCCGAGGGGACCGUCCCCUCGGUAAUGGCGAAUGGGACCCA: the self-cleavage worked out at 1.08.
Take GGCCGGCAUGGUCCCAGCCCCCUCGCUGGCGCCGGCUGGGCAACAUACCGAGGGGACCGUCCCCUCGGUAAUGGCGAAUGGGACCCA: the self-cleavage amounted to 0.133.
With GGCCGGCAUGGUCCGAGCCUCCUCGCUUGCGCCGGCUGGGCAACAUUCCGAGGGGACCGUCCCCUCGGUAAUGGCGAAUGGGACCCA the figure was 0.0437; with GGCCGGCAUGGUCCCAGCCUCCUCGCUGGCGCAGGCUGAGCAACAUUCCGAGGGGACCGUCCCCUCGGUAAUGGCGAAUGGGACCCA, 0.162.
Then GGCCGGCAUGGUCCCAGCCUCCUCGCUGGCGCCGGCUGGGCAACAUUCGGAGGGGACCGACCCCUCGGUAAUGGCGAAUGGGACCCA, with 0.923; and GGCCGGCAUGGUCCCAGCCUCCUCGCUGGCGCCGGCUGGGCAACAUUCCGAGGGGACCGUCCCCUCGGUAAUGGCGAAUGGGACGCC, with 0.849; and GGCCGGCAUGGUCCCAGCCUCCUCGCUGGCGCCGGCUGGGCAACAUGCCGAGGCGACCGUCCCCUCGGUAAUGGCGAAUGGGACCCA, with 0.928.
With GGCCGGCAUGGUCCCAGCCUCCUCGCUGGCGCCGGCUGGGUAACAUUCCGAGGGGACCGUCCCCUCGGUAAUAGCGAAUGGGACCCA the figure was 0.929.
With GGCCGGCAUGGUCCCAGCCUCCUCGCUGGCGCCGGCUGGGCAACAUUCCGAGGGGACCGUCCCCUCCGGAAUGGCGAAUGGGACCCA, the self-cleavage stood at 0.943.
